# PMC10868440, “Structural characterization of the Sel1‐like repeat protein LceB from Legionella pneumophila” (Protein Science : A Publication of the Protein Society, 2024)
# Several values for one entry are separate records, joined by “and”; a condition that tells them apart may be missing. Identical values can stand only once.
# Columns and labels:
# [1] = target: full-length 6His-LceB (Legionella pneumophila Philadelphia-1) (UniProt Q5ZVT4); test: mass photometry
# mass photometry = target: the molecule itself; test: mass photometry
Molecule,stoichiometry N [1],stoichiometry N (mass photometry)
full-length 6His-LceB (from UniProt Q5ZVT4 1-376) (natural protein),3 and 5,
"6His-LceB (22-366) (domain or fragment, also called Lpg1356; truncated LceB crystallization construct; not shown: His6, N-terminal, kept) VGFAAFENGDYTTAYPHLMQAAKEGNEEAMYLLGRMYQYGYGVTTNYEEARNWYQKAADKNNALAQLSLGFMYDTGKGVSQDFTEAFKWYMKAAEQGNPIAQRNIGLMYATGDGVAASDDKAFNWFKKAAEQGYSKAQVNLGYQYMMGKGTPKDVKKAFEWYQKAAEQGDEKGEYSLGLLYTGQEGGIGADDKAAFYWFSQAANHGHVNAQTYLAYYYLKGYGVDADPVKAAYWYQSAAEKGQPEAQAQLGQLLLTGTGVDKDYQQAAYWFGKSAHQGNPIGQAKLGYMYLAGLGVNKSLVKAYAWLKIAAENKNEEAAKQLKSLEAKLTEPEKLEAEKMIKDLG",,2
"LceB no HT (22-366) (domain or fragment, also called LceB no His-tag; digested LceB) VGFAAFENGDYTTAYPHLMQAAKEGNEEAMYLLGRMYQYGYGVTTNYEEARNWYQKAADKNNALAQLSLGFMYDTGKGVSQDFTEAFKWYMKAAEQGNPIAQRNIGLMYATGDGVAASDDKAFNWFKKAAEQGYSKAQVNLGYQYMMGKGTPKDVKKAFEWYQKAAEQGDEKGEYSLGLLYTGQEGGIGADDKAAFYWFSQAANHGHVNAQTYLAYYYLKGYGVDADPVKAAYWYQSAAEKGQPEAQAQLGQLLLTGTGVDKDYQQAAYWFGKSAHQGNPIGQAKLGYMYLAGLGVNKSLVKAYAWLKIAAENKNEEAAKQLKSLEAKLTEPEKLEAEKMIKDLG",,2
